The text below walks through data of patent US20200317768A1 (published 2020).

Experiment [1] has as its target T1, Cynomolgus monkey latent myostatin (cynomolgus monkey, UniProt Q95J86 25-266; Q95J86 267-375).
T1 construct: Latent form = complex of two propeptides and the mature dimer; also called Cyno latent myostatin
T1 sequence 1: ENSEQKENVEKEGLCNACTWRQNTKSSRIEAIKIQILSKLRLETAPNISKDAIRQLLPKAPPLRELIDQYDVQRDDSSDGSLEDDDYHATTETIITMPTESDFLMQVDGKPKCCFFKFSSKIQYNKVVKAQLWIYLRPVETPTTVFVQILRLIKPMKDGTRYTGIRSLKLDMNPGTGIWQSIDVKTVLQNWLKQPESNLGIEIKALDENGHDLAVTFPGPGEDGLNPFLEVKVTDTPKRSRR
T1 sequence 2: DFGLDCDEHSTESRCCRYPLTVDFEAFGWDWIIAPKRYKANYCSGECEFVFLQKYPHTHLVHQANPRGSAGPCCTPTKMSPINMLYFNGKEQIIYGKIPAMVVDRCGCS
The experiment in a line: SPR (BIACORE T200) 37C, pH 7.4, antibody captured by ProA/G. How it is done:
(§1) ProA/G (Pierce) was immobilized onto all flow cells of a CM4 chip using an amine coupling kit (GE Healthcare). All antibodies and analytes were prepared in ACES pH7.4 or pH5.8 buffer containing 20 mM ACES, 150 mM NaCl, 1.2 mM CaCl₂, 0.05% TWEEN®) 20, 0.005% NaN₃. […] Human, cyno, and mouse latent myostatin was injected at 3.125 to 50 nM prepared by two-fold serial dilution, followed by dissociation. The sensor surface was regenerated each cycle with 10 mM Glycine HCl pH1.5. Binding affinity was determined by processing and fitting the data to a 1:1 binding model using BIACORE® T200 Evaluation software, version 2.0 (GE Healthcare).
On the technique in general: In SPR one partner is held on a chip, and binding of the other changes the refractive index at the surface.

Experiment [2] addresses T2, Mouse latent myostatin (mouse, UniProt O08689 26-267; O08689 268-376).
T2 construct: Latent form = complex of two propeptides and the mature dimer
T2 sequence 1: T1 sequence 1 with N2G, Q5R, K6E, T19A, K25R, S26Y, K59R, V107A, E140K, N173S
T2 sequence 2: T1 sequence 2
The description is as above. How it is done:
as §1

For experiment [3], the target named is T3, Human latent myostatin (human, UniProt O14793 25-266; O14793 267-375).
T3 construct: also called human myostatin latent form
T3 sequence 1: T1 sequence 1 with A52V
T3 sequence 2: T1 sequence 2
The experiment is described as above. How it is done:
as §1

Experiment [4] has as its target T4, human FcγRIIaH extracellular domain, C-terminal His-tag (human, UniProt P12318 34-217).
T4 construct: also called human FcγRIIa (type H); FcgRIIaH
T4 sequence: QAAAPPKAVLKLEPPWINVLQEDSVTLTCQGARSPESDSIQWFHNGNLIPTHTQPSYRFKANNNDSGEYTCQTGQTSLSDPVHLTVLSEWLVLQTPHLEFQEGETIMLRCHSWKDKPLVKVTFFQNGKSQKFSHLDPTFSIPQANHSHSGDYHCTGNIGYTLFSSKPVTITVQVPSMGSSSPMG
The experiment in a line: SPR (BIACORE) 25C, antibody captured, FcgR as analyte. How it is done: (§2) The kinetic analysis of interactions between these antibodies and FcγR was carried out using BIACORE® T200 or BIACORE® 4000 (GE Healthcare). HBS-EP+ (GE Healthcare) was used as the running buffer, and the measurement temperature was set to 25° C. A chip produced by immobilizing Protein A. Protein A/G or mouse anti-human IgG kappa light chain (BD Biosciences) onto a Series S Sensor Chip CM4 or CM5 (GE Healthcare) by the amine-coupling method was used. […] After the measurement, the antibody captured on the chip was washed off by allowing reaction with 10 mM glycine-HCl, pH1.5 and 25 mM NaOH so that the chip was regenerated and used repeatedly. The sensorgrams obtained as measurement results were analyzed by the 1:1 Langmuir binding model using the BIACORE® Evaluation Software to calculate the binding rate constant ka (L/mol/s) and dissociation rate constant kd (l/s), and the dissociation constant KD (mol/L) was calculated from these values. […] Regarding such interactions, KD values were calculated using the following 1:1 binding model described in BIACORE® T100 Software Handbook BR1006-48 Edition AE.

Experiment [5] has as its target T5, cynomolgus monkey FcγRIIIaS extracellular domain, C-terminal His-tag (cynomolgus monkey, UniProt Q8SPW2 21-206 at identity 1.00)).
T5 construct: also called cyno FcγRIIIaS; FcgRIIIaS
T5 chain: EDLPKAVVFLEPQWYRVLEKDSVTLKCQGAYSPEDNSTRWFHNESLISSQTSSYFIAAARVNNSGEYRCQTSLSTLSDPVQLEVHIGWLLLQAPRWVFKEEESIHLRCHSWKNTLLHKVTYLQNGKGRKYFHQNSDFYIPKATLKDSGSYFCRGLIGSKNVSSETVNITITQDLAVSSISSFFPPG
The experiment is described as above. How it is done:
as §2

Experiment [6] addresses T1, Cynomolgus monkey latent myostatin. In words: SPR (BIACORE T200) 37C, pH 5.8, antibody captured by ProA/G. How it is done: as §1
For experiment [7], the target named is T2, Mouse latent myostatin. Described as above. As to the method: as §1
For experiment [8], the target named is T3, Human latent myostatin. The experiment is described as above. How it is done: as §1

Numbering of substitutions follows the chain as printed.

B1: MS_M103205H795-SG1/M103202L889-SK1 (antibody, human IgG1, kappa)
heavy: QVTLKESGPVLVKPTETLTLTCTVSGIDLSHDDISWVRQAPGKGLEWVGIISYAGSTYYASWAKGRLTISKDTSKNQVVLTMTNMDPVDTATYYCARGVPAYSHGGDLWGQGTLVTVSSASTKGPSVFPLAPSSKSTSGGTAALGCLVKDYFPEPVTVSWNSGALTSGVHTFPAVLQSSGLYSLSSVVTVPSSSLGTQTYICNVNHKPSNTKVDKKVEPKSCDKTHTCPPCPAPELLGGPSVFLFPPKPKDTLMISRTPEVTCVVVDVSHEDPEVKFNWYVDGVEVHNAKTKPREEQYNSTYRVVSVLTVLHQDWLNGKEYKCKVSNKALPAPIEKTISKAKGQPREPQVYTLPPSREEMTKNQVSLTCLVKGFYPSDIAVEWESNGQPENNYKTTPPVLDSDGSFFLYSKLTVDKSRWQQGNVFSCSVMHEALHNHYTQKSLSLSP
light: DIVMTQSPATLSLSPGERATLSCTSSQSVYHANWLSWFQQKPGQPPKLLIYWASTLAYGVPSRFSGSGSGTDFTLTISSLQPEDAATYYCAGGYGGGRYAFGQGTKVEIKRTVAAPSVFIFPPSDEQLKSGTASVVCLLNNFYPREAKVQWKVDNALQSGNSQESVTEQDSKDSTYSLSSTLTLSKADYEKHKVYACEVTHQGLSSPVTKSFNRGEC
notes: also called MS1032LO06-SG1
Usually Kd stands for the equilibrium constant for the complex coming apart. For B1, the equilibrium dissociation constant (Kd) was 0.343 nM in experiment [1]; 0.299 nM with Mouse latent myostatin [2]; 0.285 nM with Human latent myostatin [3]; 930 nM in experiment [4]; 420 nM in experiment [5]; 25.9 nM in experiment [6]. For the same molecule, the figures for the dissociation constant Kd with Mouse latent myostatin [7] and with Human latent myostatin [8] were 22.6 nM and 34 nM, respectively.
